From US20230071765A1, “COMPOSITIONS HAVING THIOREDOXIN ACTIVITY AND RELATED METHODS” (ORPRO THERAPEUTICS, INC., priority 2020, published 2023)

Experiment: SEC-HPLC percent free monomer in solution
Format: physicochemical
Description: Functional assays 1. Reduction state of ORP100S was quantified using DTNB which reacts with free SH groups resulting in a yellow color change at 412 nm. Fifty microliters of 2.5 mM rhTrx was added to a 96-well plate, followed by 175 microliters of sample buffer and 25 microliters of 6 mM DTNB. After reactions were initiated by the addition of DTNB, change in kinetic absorbance at 412 nm due to DTNB reduction was monitored spectrophotometrically at 30° C. ORP100S concentration was determined by A280 (Nanodrop) using the extinction coefficient of human Trx-1 (7,000). The actual concentrations of free sulfhydryl groups were calculated based on the absorbance at 412 nm and the extinction coefficient of DTNB (14,150) in order to determine the reduction state as percentage of free sulfhydryl. […] 2. Percent of free monomer ORP100S in solution was determined using SEC. Samples were analyzed on a BioBasic S-300 250×4.6 column (Thermo Scientific) run on an Agilent 1100 HPLC system. The SEC-HPLC mobile phase buffer consisted of 40 mM ammonium acetate (pH 5.5), 2 mM EDTA and 450 mM NaCl. Low pH minimized dimerization while the 450 mM NaCl concentration improved resolution. The flow rate was 0.35 mL/min and absorbance was monitored at 280 nm. The length of each run was 20 minutes. The ORP100S monomer percentage was determined by integration of the area under the peak of the monomeric fraction divided by the total area under the curve of the chromatogram. 3. Disulfide bond reduction activity of ORP100S was quantified by assaying the reduction state of a small protein (human insulin) which in its heterodimeric form contains two intermolecular and one intramolecular disulfide, all three of which are known to be suitable thioredoxin substrates. Insulin reduction has classically been used to quantify thioredoxin activity by absorbance change following addition of NADPH and TrxR (Holmgren A., 1979, Thioredoxin catalyzes the reduction of insulin disulfides by dithiothreitol and dihydrolipoamide, J Biol Chem 254:9627-32). Such an approach is not suitable for monothiol C35S thioredoxins ORP-100 and ORP100S due to 1) the lack of cycling resulting from stoichiometric covalent linkage to the disulfide bond substrate and 2) the inability of NADPH and TrxR to reduce Cys32 of the oxidized monothiol Trx active site. Consequently, a new assay was developed based on the use of reverse-phase (RP) HPLC to monitor the rate of conversion of disulfide-bonded insulin heterodimers to monomeric forms. The two chains of human insulin have a total of six Cys residues which form three disulfide bonds in its mature structure. When ORP100S in the reduced form is incubated with dimeric insulin it reacts with these disulfide bonds to disrupt them, simultaneously forming covalent linkages to the ORP100S Cys32. […] The ORP100S samples were incubated with 10 mg/mL insulin for various time points (0-90 min) and the reactions were stopped by addition of iodacetic acid (IA) and trifluoroacetic acid (TFA). Relative activity at each time point was determined from changes in the area under the insulin heterodimer peak following separation over RP-HPLC (Agilent 1100) using an Intrada WP-RP 50×3 (Imtakt) column. Buffer A was 0.1% TFA and Buffer B was 0.1% TFA in acetonitrile. The gradient was […] in 5 min followed by 30 to 60% B in 45 min, then 60 to 80% B for an additional 5 min. The flow rate was 0.2 mL/min and absorbance was measured at 280 nm. In order to evaluate the change in the intact insulin molecule a time 0 baseline was first established using 1 M IA and 0.1% TFA without the addition of ORP100S. The area under the intact insulin heterodimer peak was then determined and set as equivalent to 100%. After the reaction with ORP100S the area of the intact insulin peak (corresponding to retention time) was measured. The percent reduction in intact insulin was then calculated from the decrease in the area following reduction divided by the area at time 0 multiplied by 100.

[1] = 70 mg/mL in PBS, 25° C., red fraction removed
[2] = 80 mg/mL in PBS, 25° C., red fraction removed
[3] = 90 mg/mL in PBS, 25° C., red fraction removed
[4] = 100 mg/mL in PBS, 25° C., red fraction removed
[5] = 110 mg/mL in PBS, 25° C., red fraction removed

B1: ORP100S: thioredoxin with monothiol active site, Cys35 and non-active Cys 62, 69 and 73 substituted with serine (SEQ ID NO:29) (protein)
chain: MVKQIESKTAFQEALDAAGDKLVVVDFSATWCGPSKMIKPFFHSLSEKYSNVIFLEVDVDDSQDVASESEVKSMPTFQFFKKGQKVGEFSGANKEKLEATINELV
modifications: synthetic peptide motif
Question: For B1, which “% monomer (232 hrs)” value [1] is on record?
Answer: The value was 93%.

Question: What about the “% monomer (Time 0)” value [1] of the same molecule?
Answer: Its value is 93%.

Question: And the “% monomer (232 hrs)” value [2]?
Answer: Its value is 93%.

Question: What about the “% monomer (Time 0)” value [2] of the same molecule?
Answer: The value was 94%.

Question: And the “% monomer (232 hrs)” value [3]?
Answer: Its value is 92%.

Question: What about the “% monomer (Time 0)” value [3] of the same molecule?
Answer: The value was 94%.

Question: What about the “% monomer (232 hrs)” value [4] of the same molecule?
Answer: Its value is 93%.

Question: And the “% monomer (Time 0)” value [4]?
Answer: The value was 95%.

Question: And the “% monomer (232 hrs)” value [5]?
Answer: Its value is 92%.

Question: What about the “% monomer (Time 0)” value [5] of the same molecule?
Answer: Its value is 95%.

Question: What about the SEC % monomer (Ox:Red 0:100 mixture) of the same molecule?
Answer: Its SEC % monomer is 89%.

Question: And the SEC % monomer (Ox:Red 25:75 mixture)?
Answer: The SEC % monomer was 70%.

Question: And the SEC % monomer (Ox:Red 50:50 mixture)?
Answer: The SEC % monomer was 52%.

Question: What about the SEC % monomer (Ox:Red 75:25 mixture) of the same molecule?
Answer: The SEC % monomer was 36%.

Question: And the SEC % monomer (Ox:Red 100:0 mixture)?
Answer: Its SEC % monomer is 22%.

Question: And the “decrease in percent monomer” value (time 0 to 232 hours, 25° C., PBS, 70-110 mg/ml, red fraction removed)?
Answer: The value was 2%.
